Among the data in PMC10014536 are light-evoked second messenger (cAMP) plate reader assay in transfected HEK293 cells, G-protein subtype profile of bovine rhodopsin (Supplementary Figure S5) values, retold here.

This test has as its target bovine rhodopsin (bovine) (UniProt P02699).
UniProt P02699, sequence (P02699 whole entry): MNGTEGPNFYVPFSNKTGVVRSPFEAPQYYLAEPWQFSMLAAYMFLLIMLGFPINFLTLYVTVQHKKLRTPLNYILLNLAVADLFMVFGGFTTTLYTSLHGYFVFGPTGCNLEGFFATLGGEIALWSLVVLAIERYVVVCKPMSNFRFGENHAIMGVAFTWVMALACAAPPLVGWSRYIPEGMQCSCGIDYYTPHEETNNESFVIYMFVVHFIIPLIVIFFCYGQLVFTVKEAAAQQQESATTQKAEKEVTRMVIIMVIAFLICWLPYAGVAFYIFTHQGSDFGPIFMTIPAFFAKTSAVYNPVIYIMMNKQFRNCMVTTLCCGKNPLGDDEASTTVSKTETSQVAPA

For Gso (Gs subunit chimera with a Go tail), the light-evoked second messenger (cAMP) plate reader assay in transfected HEK293 cells, G-protein subtype profile of bovine rhodopsin (Supplementary Figure S5) was determined as 10%.
